Test results taken from patent publication US20190055322A1.
Several values for one entry are separate records, joined by “and”; a condition that tells them apart may be missing. Identical values can stand only once.

Target: different PcrV variants and reference strain PAO1 (23 PcrV sequence variants, GST-PcrV-His6)

Binder	EC50
Nanobody 261 (5H01-40GS-2B10) (VHH) EVQLVESGGGLVQPGGSLRLSCAASGSTLDYYAIGWFRQAPGKEREGVSCTSNSGSTYYGGSVKGRFTASRDNAKNTVYLQMNSLRPEDTAVYYCVATIGCATLGGTLDVQRYYYRGQGTLVTVSSGGGGSGGGGSGGGGSGGGGSGGGGSGGGGSGGGGSGGGGSEVQLVESGGGLVQPGGSLRLSCAASGSIFSINNMGWYRQAPGKQRELVTVVTSNLITTYADSVKGRFTISRDNAKNTVYLQMNSLKPEDTAVYYCNAWARSVGSVPYSQFWGQGTLVTVSS	0.06 nM and 0.07 nM
Nanobody 319 (13F07-40GS-6B05) (VHH) EVQLVESGGGLVQAGGSLRLSCAASGNTFSTNPMYWYRQAEGKQRELVASISSRGITNYADSVRGRFSISRDNTKDTVYLQMNSLKPEDTAVYYCRLASLSSGTVYWGKGTLVTVSSGGGGSGGGGSGGGGSGGGGSGGGGSGGGGSGGGGSGGGGSEVQLVESGGGLVQPGGSLRLSCAASGSIFSINTMGWYRQAPGKQRELVSTITSNLVPHYADSVQGRFTISRDNARNTVYLQMNSLKPQDTAHYYCNAWARSSGATPYTNYWGQGTLVTVSS	0.08 nM and 0.1 nM
Nanobody 277 (5H01-40GS-11B09) (VHH) EVQLVESGGGLVQPGGSLRLSCAASGSTLDYYAIGWFRQAPGKEREGVSCTSNSGSTYYGGSVKGRFTASRDNAKNTVYLQMNSLRPEDTAVYYCVATIGCATLGGTLDVQRYYYRGQGTLVTVSSGGGGSGGGGSGGGGSGGGGSGGGGSGGGGSGGGGSGGGGSEVQLVESGGGLVQAGGSLRLSCAASRLTFNHYNMGWFRQAPGKERERVAEVTWSGDKIYYVDSVKGRFTISRDNTPNPVYLYLQMNSLKPEDTAVYYCATAPRGLPYANGYWGQGTLVTVSS	0.07 nM and 0.1 nM
Nanobody 271 (7C10-40GS-14E10) (VHH) EVQLVESGGGLVQAGGSLRLSCTASGRTLSSYTMGWFRQAPGTEREFVAAMTRSGFNTYYADSVKGRFTISRDSTENTMALQMSSLKPEDTAVYYCTAGRGLTSYRADYWGQGTLVTVSSGGGGSGGGGSGGGGSGGGGSGGGGSGGGGSGGGGSGGGGSEVQLVESGGGLVQPGGSLRLSCAASGRIFSINTMGWYRQAPGKQRELVAGVTINAITNYADSVKGRFTISRDNAKNTVWLQMNSLKPEDTAVYYCHAWARSSGSAPYSQNWGQGTLVTVSS	0.06 nM and 0.1 nM
Nanobody 259 (1E11-40GS-5H01) (VHH) EVQLVESGGGLVQPGGSLRLSCAASGSTRSVNPMAWFRQAPGRQREWVATISRSGYATYADSVKGRFTISGDNAKSSVYLQMNSLKPEDTAVYYCVTGTYWGQGTLVTVSSGGGGSGGGGSGGGGSGGGGSGGGGSGGGGSGGGGSGGGGSEVQLVESGGGLVQPGGSLRLSCAASGSTLDYYAIGWFRQAPGKEREGVSCTSNSGSTYYGGSVKGRFTASRDNAKNTVYLQMNSLRPEDTAVYYCVATIGCATLGGTLDVQRYYYRGQGTLVTVSS	0.01 nM and 0.02 nM
Nanobody 285 (13F07-40GS-2B02) (VHH) EVQLVESGGGLVQAGGSLRLSCAASGNTFSTNPMYWYRQAEGKQRELVASISSRGITNYADSVRGRFSISRDNTKDTVYLQMNSLKPEDTAVYYCRLASLSSGTVYWGKGTLVTVSSGGGGSGGGGSGGGGSGGGGSGGGGSGGGGSGGGGSGGGGSEVQLVESGGGLVQPGDSLRLSCAASGRILSINNMVWYRQAPGKQRELVAHITSSGSTGYADSVKGRFTISRDNAKNTFYLQMTNLNPEDTAVYYCNCWVSSDSNAPLKNYWGQGTLVTVSS	0.1 nM
Nanobody 275 (2G09-40GS-5H01) (VHH) EVQLVESGGGLVQPGGSLRLSCAASGSFGDNYELYAMTWFRQAPGERRDFVASVTGDGSTSYADSVKDRFTISRDNAKKLMYLQMNSLKPEDTAVYYCRLLNYWGQGTLVTVSSGGGGSGGGGSGGGGSGGGGSGGGGSGGGGSGGGGSGGGGSEVQLVESGGGLVQPGGSLRLSCAASGSTLDYYAIGWFRQAPGKEREGVSCTSNSGSTYYGGSVKGRFTASRDNAKNTVYLQMNSLRPEDTAVYYCVATIGCATLGGTLDVQRYYYRGQGTLVTVSS	0.6 nM and 0.9 nM
